Data on 6 sequences can be found in the supplement of paper PMC11316812.

± gives the standard deviation of the averaged measurements.

In one data set the test system is hTERT-HMEC. As to the kind of experiment: percentage of EdU-negative (G0-arrested) nuclei per well, 72 h; higher = more G0 arrest. As to conditions: reference: sequence is the full UniProt precursor, the tested protein was the secreted form or ectodomain.
In the next data set the test system is MCF7. Described as above. Conditions: reference: sequence is the full UniProt precursor, the tested protein was the secreted form or ectodomain.
Setting [1] is: protein concentration 0.0257143 µM.
Setting [2] is: protein concentration 0.257143 µM.
Where [3] appears, read: protein concentration 0.0225 µM.
Where [4] appears, read: protein concentration 0.03125 µM.
[5] abbreviates: protein concentration 0.3125 µM.
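Further: secreted proteins added to cultured cells, EdU pulse at the end, nuclei found by Hoechst imaging, EdU status from nuclear versus surrounding ring intensity ratio, PBS as neutral control.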

For the sequence “MALRRSMGRPGLPPLPLPPPPRLGLLLAALASLLLPESAAAGLKLMGAPVKLTVSQGQPVKLNCSVEGMEEPDIQWVKDGAVVQNLDQLYIPVSEQHWIGFLSLKSVERSDAGRYWCQVEDGGETEISQPVWLTVEGVPFFTVEPKDLAVPPNAPFQLSCEAVGPPEPVTIVWWRGTTKIGGPAPSPSVLNVTGVTQSTMFSCEAHNLKGLASSRTATVHLQALPAAPFNITVTKLSSSNASVAWMPGADGRALLQSCTVQVTQAPGGWEVLAVVVPVPPFTCLLRDLVPATNYSLRVRCANALGPSPYADWVPFQTKGLAPASAPQNLHAIRTDSGLILEWEEVIPEAPLEGPLGPYKLSWVQDNGTQDELTVEGTRANLTGWDPQKDLIVRVCVSNAVGCGPWSQPLVVSSHDRAGQQGPPHSRTSWVPVVLGVLTALVTAAALALILLRKRRKETRFGQAFDSVMARGEPAVHFRAARSFNRERPERIEATLDSLGISDELKEKLEDVLIPEQQFTLGRMLGKGEFGSVREAQLKQEDGSFVKVAVKMLKADIIASSDIEEFLREAACMKEFDHPHVAKLVGVSLRSRAKGRLPIPMVILPFMKHGDLHAFLLASRIGENPFNLPLQTLIRFMVDIACGMEYLSSRNFIHRDLAARNCMLAEDMTVCVADFGLSRKIYSGDYYRQGCASKLPVKWLALESLADNLYTVQSDVWAFGVTMWEIMTRGQTPYAGIENAEIYNYLIGGNRLKQPPECMEDVYDLMYQCWSADPKQRPSFTCLRMELENILGQLSVLSASQDPLYINIERAEEPTAGGSLELPGRDQPYSGAGDGSGMGAVGGTPSDCRYILTPGGLAEQPGQAEHQPESPLNETQRLLLLQQGLLPHSSC”, the “percentage of EdU-negative” value in the data set with hTERT-HMEC (setting [1]) turned out to be 3.99 ± 0.11%; with hTERT-HMEC (setting [2]) it was 5.87 ± 0.091%; in the data set on MCF7 (setting [1]), 25.83 ± 0.093%; with MCF7 (setting [2]) it was 27.3 ± 1.4%.
“MALRVVRSVRALLCTLRAVPSPAAPCPPRPWQLGVGAVRTLRTGPALLSVRKFTEKHEWVTTENGIGTVGISNFAQEALGDVVYCSLPEVGTKLNKQDEFGALESVKAASELYSPLSGEVTEINEALAENPGLVNKSCYEDGWLIKMTLSNPSELDELMSEEAYEKYIKSIEE”: the “percentage of EdU-negative” value with hTERT-HMEC (setting [3]) was 4.5 ± 0.0069%; in the data set with hTERT-HMEC (protein concentration 0.225 µM), 10.4 ± 2.3%; with MCF7 (setting [3]), 25.5 ± 2.2%; in the data set with MCF7 (protein concentration 0.225 µM), 26.3 ± 3.4%.
For the sequence “MALSFSLLMAVLVLSYKSICSLGCDLPQTHSLGNRRALILLAQMGRISHFSCLKDRHDFGFPEEEFDGHQFQKAQAISVLHEMIQQTFNLFSTEDSSAAWEQSLLEKFSTELYQQLNDLEACVIQEVGVEETPLMNEDSILAVRKYFQRITLYLTEKKYSPCAWEVVRAEIMRSLSFSTNLQKRLRRKD”, the “percentage of EdU-negative” value in the data set on hTERT-HMEC (setting [4]) is 9.16 ± 2.3%; in the data set with hTERT-HMEC (setting [5]), 13.8 ± 2.7%; in the data set on MCF7 (setting [4]) it was 40.1 ± 1.1%; with MCF7 (setting [5]), 46.8 ± 1.5%.
On the same counts, the results for “MALSFSLLMAVLVLSYKSICSLGCDLPQTHSLGNRRALILLAQMGRISHFSCLKDRYDFGFPQEVFDGNQFQKAQAISAFHEMIQQTFNLFSTKDSSAAWDETLLDKFYIELFQQLNDLEACVTQEVGVEEIALMNEDSILAVRKYFQRITLYLMGKKYSPCAWEVVRAEIMRSFSFSTNLQKGLRRKD” are 11.7 ± 1.5%, 18.9 ± 0.54%, 47.8 ± 1.4% and 49.2 ± 3.4%.
On the same counts, the results for “MALSFSLLMAVLVLSYKSICSLGCDLPQTHSLGNRRALILLAQMGRISPFSCLKDRHDFGFPQEEFDGNQFQKAQAISVLHEMIQQTFNLFSTKDSSATWEQSLLEKFSTELNQQLNDLEACVIQEVGVEETPLMNVDSILAVKKYFQRITLYLTEKKYSPCAWEVVRAEIMRSFSLSKIFQERLRRKE” are 15.2 ± 2.2%, 17.64 ± 0.089%, 46.7 ± 0.98% and 47.89 ± 0.27%.
In the case of “MALSWVLTVLSLLPLLEAQIPLCANLVPVPITNATLDRITGKWFYIASAFRNEEYNKSVQEIQATFFYFTPNKTEDTIFLREYQTRQNQCFYNSSYLNVQRENGTVSRYEGGREHVAHLLFLRDTKTLMFGSYLDDEKNWGLSFYADKPETTKEQLGEFYEALDCLCIPRSDVMYTDWKKDKCEPLEKQHEKERKQEEGES”, the “percentage of EdU-negative” value in the data set on hTERT-HMEC (setting [3]) stood at 4.9 ± 0.092%; with hTERT-HMEC (protein concentration 0.225 µM), 5.06 ± 0.15%; in the data set with MCF7 (setting [3]), 25.4 ± 2.9%; in the data set on MCF7 (protein concentration 0.225 µM), 25.1 ± 3.5%.
